Assay results published in the Immune Epitope Database (IEDB).
pKd: −log10 of the molar value.

How the values were obtained:
Assay in all cases: IEDB peptide-MHC binding, purified MHC/competitive/fluorescence; filed as Kd, often an IC50 or EC50 that approximates it; ≥ and ≤ were set here for values at or beyond the usual limits of such assays
Settings in all cases: source organism: Plasmodium falciparum 3D7
HLA-B*44:02 = target: HLA-B*44:02
HLA-A*03:01 = target: HLA-A*03:01
HLA-A*01:01 = target: HLA-A*01:01
HLA-A*24:02 = target: HLA-A*24:02
HLA-A*02:01 = target: HLA-A*02:01
HLA-B*07:02 = target: HLA-B*07:02

Sequence: AEISRNDLI
- pKd (HLA-B*44:02): 5.34

Sequence: ALNLFFQNK
- pKd (HLA-A*03:01): 5.94

Sequence: ASFSASTGY
- pKd (HLA-A*01:01): ≤ 3.00
- pKd (HLA-A*03:01): 5.63
- pKd (HLA-B*44:02): ≤ 4.50

Sequence: CRDKTSALY
- pKd (HLA-A*01:01): ≤ 3.00

Sequence: DDTFEVYSEY
- pKd (HLA-A*01:01): ≤ 3.00
- pKd (HLA-B*44:02): ≤ 3.00

Sequence: DENLKAIQI
- pKd (HLA-B*44:02): ≤ 4.04

Sequence: DSDDLKESY
- pKd (HLA-A*01:01): 5.58

Sequence: DTFEVYSEY
- pKd (HLA-A*01:01): ≤ 3.00
- pKd (HLA-A*03:01): ≤ 3.00

Sequence: EENLFEWSKT
- pKd (HLA-B*44:02): ≤ 3.00

Sequence: EWLKTCKYYC
- pKd (HLA-A*24:02): ≤ 3.24

Sequence: FCFSFLKSSK
- pKd (HLA-A*03:01): 5.04

Sequence: FDNSGISLL
- pKd (HLA-A*02:01): ≤ 3.64
- pKd (HLA-B*44:02): ≤ 3.00

Sequence: FIDPQTEMFK
- pKd (HLA-A*01:01): ≤ 4.33
- pKd (HLA-A*03:01): 5.09

Sequence: FLENFNFPL
- pKd (HLA-A*01:01): ≤ 3.00
- pKd (HLA-A*02:01): 5.43

Sequence: FLLNLLNEHV
- pKd (HLA-A*02:01): 5.77

Sequence: FPKLLNKPSL
- pKd (HLA-B*07:02): ≤ 4.14

Sequence: FPPNTFDAL
- pKd (HLA-B*07:02): 5.56

Sequence: FTNVNQFFK
- pKd (HLA-A*01:01): ≤ 3.00
- pKd (HLA-A*03:01): 6.04

Sequence: GIANDLSTL
- pKd (HLA-A*02:01): 5.24

Sequence: GLSPHDTMQK
- pKd (HLA-A*03:01): 5.96

Sequence: HPFLKSGFTF
- pKd (HLA-A*24:02): 4.98
- pKd (HLA-B*07:02): 6.65
- pKd (HLA-B*44:02): ≤ 3.00

Sequence: HPKYRNFKF
- pKd (HLA-B*07:02): 6.47

Sequence: HPMPINIKL
- pKd (HLA-B*07:02): 6.77

Sequence: HYGINPVQL
- pKd (HLA-A*24:02): 5.17

Sequence: HYNTYKNRVF
- pKd (HLA-A*24:02): 5.52

Sequence: IENNLYERL
- pKd (HLA-B*44:02): ≤ 4.22

Sequence: ILISRLTLK
- pKd (HLA-A*03:01): 6.66

Sequence: ILYKNIDCV
- pKd (HLA-A*02:01): 5.85

Sequence: IPPQVFDYPI
- pKd (HLA-B*07:02): ≤ 3.61

Sequence: ITNKNKVTIY
- pKd (HLA-A*01:01): ≤ 3.00
- pKd (HLA-A*03:01): 5.06

Sequence: IWYKYTESDF
- pKd (HLA-A*24:02): 5.95

Sequence: IYGKGGFQF
- pKd (HLA-A*24:02): 6.79

Sequence: KEDDTFEVY
- pKd (HLA-A*01:01): ≤ 3.00

Sequence: KEEKEINDEY
- pKd (HLA-B*44:02): ≤ 3.00

Sequence: KLPPLLNEI
- pKd (HLA-A*02:01): 5.57
- pKd (HLA-A*24:02): 7.05

Sequence: KLYSINSKSI
- pKd (HLA-A*02:01): ≤ 4.24
- pKd (HLA-B*07:02): ≤ 3.65

Sequence: KMKSDQYPI
- pKd (HLA-A*02:01): 5.51
- pKd (HLA-A*24:02): 5.16

Sequence: KNYDNYNMK
- pKd (HLA-A*03:01): 5.60

Sequence: KPNFWRFQDY
- pKd (HLA-B*07:02): ≤ 3.00

Sequence: KTCKYYCFK
- pKd (HLA-A*03:01): ≤ 3.93

Sequence: KYDPRISGW
- pKd (HLA-A*24:02): 5.30

Sequence: LFGDENFSF
- pKd (HLA-A*24:02): 5.23

Sequence: LISRLTLKY
- pKd (HLA-A*01:01): 4.94

Sequence: LISTDIIFL
- pKd (HLA-A*02:01): 6.21

Sequence: LLFQKAANL
- pKd (HLA-A*02:01): 5.73

Sequence: LLNSDRRDL
- pKd (HLA-B*07:02): 6.70

Sequence: LPIEPKKLA
- pKd (HLA-B*07:02): ≤ 3.25

Sequence: LSSNIENIY
- pKd (HLA-A*01:01): ≤ 4.53

Sequence: LTHKYNEFV
- pKd (HLA-A*01:01): ≤ 3.76
- pKd (HLA-A*02:01): 5.62

Sequence: LTMKMINNK
- pKd (HLA-A*03:01): 6.33

Sequence: MDFPKLLNK
- pKd (HLA-A*03:01): 5.68

Sequence: MENEDVEFI
- pKd (HLA-B*44:02): ≤ 4.43

Sequence: MYHNKEFDF
- pKd (HLA-A*24:02): 5.35

Sequence: NEEIIDLLNL
- pKd (HLA-B*44:02): ≤ 3.36

Sequence: NENNTTYQY
- pKd (HLA-B*44:02): 4.74

Sequence: NLFEWSKTV
- pKd (HLA-A*02:01): 5.79

Sequence: NLFFQNKSI
- pKd (HLA-A*02:01): ≤ 3.00

Sequence: NLNLCGKYTK
- pKd (HLA-A*03:01): ≤ 3.00

Sequence: NMNYKQNNF
- pKd (HLA-A*24:02): 4.83

Sequence: NMYQQNIPL
- pKd (HLA-A*02:01): ≤ 3.48

Sequence: NNNFRNNMY
- pKd (HLA-A*01:01): ≤ 3.00

Sequence: NPVQLKSKF
- pKd (HLA-B*07:02): ≤ 4.22

Sequence: NSDKLDLIY
- pKd (HLA-A*01:01): 6.06

Sequence: NSPNVNKRY
- pKd (HLA-A*01:01): ≤ 3.00

Sequence: NTFDALYYV
- pKd (HLA-A*01:01): ≤ 3.00
- pKd (HLA-A*02:01): 5.06

Sequence: NTVKCPNDY
- pKd (HLA-A*01:01): ≤ 3.55

Sequence: NYKQNNFPF
- pKd (HLA-A*24:02): 5.02

Sequence: NYNNDQYNI
- pKd (HLA-A*24:02): 5.18

Sequence: PFLKSGFTF
- pKd (HLA-A*24:02): 5.08

Sequence: QVFDYPIEK
- pKd (HLA-A*03:01): 5.80

Sequence: RISGWKGDNK
- pKd (HLA-A*03:01): 6.26

Sequence: RLNLFCFSF
- pKd (HLA-A*24:02): 4.96
- pKd (HLA-B*44:02): ≤ 3.00

Sequence: RLNLFCFSFL
- pKd (HLA-A*02:01): ≤ 3.79
- pKd (HLA-A*03:01): 5.21
- pKd (HLA-B*44:02): ≤ 3.38

Sequence: RLNNRSIYK
- pKd (HLA-A*03:01): 6.65

Sequence: RNIISKHTSV
- pKd (HLA-B*07:02): ≤ 3.30

Sequence: RSKKTFLVK
- pKd (HLA-A*03:01): 6.39

Sequence: RSSGSTFSIK
- pKd (HLA-A*03:01): 6.49

Sequence: SESTSTYNT
- pKd (HLA-B*44:02): ≤ 3.99

Sequence: SHPKYRNFKF
- pKd (HLA-A*24:02): 4.78

Sequence: SIASKNLMWV
- pKd (HLA-A*02:01): ≤ 3.55
- pKd (HLA-A*03:01): ≤ 3.00
- pKd (HLA-B*07:02): ≤ 3.00

Sequence: SILISRLTL
- pKd (HLA-B*44:02): ≤ 3.00

Sequence: SISDYTKSL
- pKd (HLA-A*02:01): ≤ 3.45

Sequence: SKHPFLKSGF
- pKd (HLA-B*44:02): ≤ 3.00

Sequence: SLTHKYNEF
- pKd (HLA-A*24:02): 4.90

Sequence: SLTHKYNEFV
- pKd (HLA-A*02:01): ≤ 3.74

Sequence: SMTNIPMNV
- pKd (HLA-A*02:01): 6.61

Sequence: SPHDTMQKDD
- pKd (HLA-B*07:02): ≤ 3.00

Sequence: SSANDEQSY
- pKd (HLA-A*01:01): ≤ 4.19

Sequence: STDIIFLTMK
- pKd (HLA-A*01:01): ≤ 3.00
- pKd (HLA-A*03:01): 5.06

Sequence: TEMFKLRLNL
- pKd (HLA-A*24:02): ≤ 4.24
- pKd (HLA-B*07:02): ≤ 3.00
- pKd (HLA-B*44:02): ≤ 4.26

Sequence: TEYFKNKNM
- pKd (HLA-B*44:02): ≤ 4.50

Sequence: TIYGKGGFQF
- pKd (HLA-B*07:02): ≤ 3.96

Sequence: TMANQNMNY
- pKd (HLA-A*01:01): 5.70
- pKd (HLA-A*03:01): 6.03

Sequence: TMANQNMNYK
- pKd (HLA-A*03:01): 6.68

Sequence: TSKQGSSNKY
- pKd (HLA-A*01:01): ≤ 3.00

Sequence: TTFFESVSY
- pKd (HLA-A*01:01): ≤ 3.47
- pKd (HLA-A*03:01): ≤ 3.18

Sequence: TYSIYTNFKN
- pKd (HLA-A*24:02): ≤ 4.58

Sequence: VIHYGINPV
- pKd (HLA-A*02:01): 5.77

Sequence: WLNNDIYNV
- pKd (HLA-A*02:01): 6.80

Sequence: YESQLGGKI
- pKd (HLA-B*44:02): ≤ 4.18

Sequence: YGKGGFQFVF
- pKd (HLA-A*24:02): 6.64

Sequence: YITNKNKVTI
- pKd (HLA-A*02:01): ≤ 3.00

Sequence: YPIEKLGHV
- pKd (HLA-B*07:02): 6.59

Sequence: YTIGLPPYI
- pKd (HLA-A*02:01): 5.61
- pKd (HLA-A*24:02): 5.18

Sequence: YYPIIRKQF
- pKd (HLA-A*24:02): 7.00
